In patent US20110195911A1, “SYNTHETIC ANALOGS OF THE JUXTAMEMBRANE DOMAIN OF IGF1R AND USES THEREOF” (THE UNITED STATES OF AMERICA,AS REPRESENTED BY THE …, priority 2008, published 2011):
Where a SMILES comes first, the peptide text is derived from it. [ ]: non-standard residue; d: D form. The star is where a group is joined. Palmitoyl = CCCCCCCCCCCCCCCC(=O)*

Assays:
[1] = test system: MCF-7 breast cancer cells; assay: MTT cell toxicity assay in MCF-7 breast cancer cells; format: cell-based; conditions: MCF-7 cells, MTT; for TGI: concentration of total growth inhibition (cytostatic); for growth inhibition / potency in MCF-7 cells (in words): comparison with related peptides
Outline: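 MCF-7 cells seeded in 1% FBS medium, grown 24 h, then exposed to compounds at 0.1, 0.5, 2.5 or 5.0 μM (final, 0.5% FBS) for 48 h. MTT absorbance at 544 nm; growth relative to time-zero and untreated controls gave GI50 (50% growth inhibition) and TGI (zero net growth).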

[2] = test system: breast cancer cell lines; assay: Alternative potency assay (MTT, serum-free, IGF-1 added) in cancer cell lines, FIG. 1; format: cell-based; conditions: breast cancer cell lines (MCF-7, T47D), IGF-1 10 ng/mL
Experimental: An alternative potency assay was used to test compounds in MCF-7 (breast cancer), T47D (breast cancer), Colo 205 (colon cancer), JM-1 (rat hepatoma), Sk MeI-2 (melanoma), PLC (human hepatoma), and HepG2 (human hepatoma) cells. Cells were suspended at a concentration of approximately 5000 cells per 100 μL of suspension in a 5% FBS RPMI medium. The cells were seeded into 96-count wells and incubated over night. After one day's incubation, the 5% FBS medium was aspirated and replaced with 100 μL of no serum RPMI medium containing 1 mg Bovine Serum Albumin (BSA) per 1 mL RPMI. Various concentrations of the test compounds were prepared by dilution in no-serum medium containing 1 mg BSA/mL. […] Absorbance of the wells at 544 nm was determined by a FLUOstar/POLARstar Galaxy (BMG Lab Technologies GmbH) microplate reader. The activity was calculated from the data using the formula: 100×[(T−T0)/(C−T0)] for T>T0 and 100×[(T−T0)/T0] for T<T0, wherein T0 corresponds to cell density at the time of drug addition, “T” is the optical density of the test well after a 48-h period of exposure to test drug, and “C” is the control optical density. […]

[3] = test system: AKT kinase; assay: OMNIA fluorogenic AKT kinase activity assay in lysates of IGF-1-stimulated MCF-7 cells, FIG. 3; format: cell-based; conditions: MCF-7 stimulated with IGF-1, inhibitor 0 to 0.5 μM to 2.5 μM
Experimental: AKT Kinase Assay: OMNIA™ fluorogenic AKT Kinase Activity Assay Kit (BioSource through Invitrogen) was used for the measurement of AKT activity in cell lysates. To prepare for the cell treatment, MCF-7 cells were seeded into four wells on a six-well plate in RPMI medium. The medium was supplemented with 10% Fetal Bovine Serum to aid the cell attachment. The cells were incubated for 24 hours, after which time the 10% serum medium was aspirated and replaced with 2 mL of no-serum medium. The cells were starved overnight to stop the signaling from the FBS. On the third day, the medium was replaced and different dilutions of peptide diluted in no-serum medium was added to the four wells. Well 1 & 2 had 0.0 μM of 18, well 3 0.5 and well 4 2.5 μM.
The cells were placed on ice briefly to aid in detaching and then scraped from the bottom of the wells and rinsed with cold PBS. The cells suspended in PBS were collected and centrifuged for 5 minutes at 1500 rpm at 4° C. and the medium aspirated. […]
Master mix AKT fluorogenic substrate was prepared according to the protocol provided by BioSource. […] The fluorescence was excited at 360 nm and read at 485 nm for a length of 60 minutes every thirty seconds on a FLUOstar/POLARstar Galaxy (BMG Lab Technologies GmbH) microplate reader. […]

[4] = molecular target: Insulin-like growth factor 1 receptor (IGF1R) (UniProt P08069 31-1367, limits assumed); assay: cell-based or functional assay
[5] = final 0.5% FBS, two days with compound

Insulin-like growth factor 1 receptor (IGF1R), sequence (P08069 31-1367 limits assumed): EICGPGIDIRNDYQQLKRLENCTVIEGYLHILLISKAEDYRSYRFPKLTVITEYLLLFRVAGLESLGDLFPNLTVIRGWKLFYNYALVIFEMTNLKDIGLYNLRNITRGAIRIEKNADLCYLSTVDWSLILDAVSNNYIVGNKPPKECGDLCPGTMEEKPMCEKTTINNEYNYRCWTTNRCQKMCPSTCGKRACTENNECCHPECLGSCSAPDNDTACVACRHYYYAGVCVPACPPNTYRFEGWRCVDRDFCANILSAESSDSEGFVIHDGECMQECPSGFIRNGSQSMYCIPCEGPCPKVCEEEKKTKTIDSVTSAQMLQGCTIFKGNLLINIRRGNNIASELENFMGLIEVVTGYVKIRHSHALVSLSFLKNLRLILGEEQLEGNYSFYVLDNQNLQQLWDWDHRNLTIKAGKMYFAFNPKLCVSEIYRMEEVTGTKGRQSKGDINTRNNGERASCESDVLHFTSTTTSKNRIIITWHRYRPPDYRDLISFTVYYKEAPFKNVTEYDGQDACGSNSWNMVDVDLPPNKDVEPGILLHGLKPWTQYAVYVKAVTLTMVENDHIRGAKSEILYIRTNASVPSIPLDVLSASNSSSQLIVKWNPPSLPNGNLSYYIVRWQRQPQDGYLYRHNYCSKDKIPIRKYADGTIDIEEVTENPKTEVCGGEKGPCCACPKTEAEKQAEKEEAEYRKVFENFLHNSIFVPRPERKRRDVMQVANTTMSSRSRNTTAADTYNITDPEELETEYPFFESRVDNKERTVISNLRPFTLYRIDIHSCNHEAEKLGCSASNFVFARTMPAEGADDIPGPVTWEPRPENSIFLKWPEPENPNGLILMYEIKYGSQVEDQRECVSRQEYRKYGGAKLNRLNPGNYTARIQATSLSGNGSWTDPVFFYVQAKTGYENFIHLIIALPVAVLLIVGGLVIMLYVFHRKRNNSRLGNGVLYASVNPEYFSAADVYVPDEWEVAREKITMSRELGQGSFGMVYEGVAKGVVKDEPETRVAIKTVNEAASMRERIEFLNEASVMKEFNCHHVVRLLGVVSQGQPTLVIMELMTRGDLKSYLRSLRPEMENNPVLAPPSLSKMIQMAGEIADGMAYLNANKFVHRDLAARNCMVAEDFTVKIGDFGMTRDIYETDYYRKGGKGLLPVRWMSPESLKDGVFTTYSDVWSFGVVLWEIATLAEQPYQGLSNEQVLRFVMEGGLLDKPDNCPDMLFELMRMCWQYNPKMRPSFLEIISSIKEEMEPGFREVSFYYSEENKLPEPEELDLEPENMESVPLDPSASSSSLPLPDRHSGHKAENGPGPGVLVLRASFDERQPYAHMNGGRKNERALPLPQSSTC

Molecule | GI50 (µM), MTT assay, MCF-7 cells [4] [µM] | TGI (µM), MTT assay, MCF-7 cells [4] [µM] | further results
CCCCCCCCCCCCCCCC(=O)N[C@@H](Cc1c[nH]cn1)C(=O)N[C@@H](CCCNC(=N)N)C(=O)N[C@@H](CCCCN)C(=O)N[C@@H](CCCNC(=N)N)C(=O)N[C@@H](CC(N)=O)C(=O)N[C@@H](CC(N)=O)C(=O)N[C@@H](CO)C(=O)N[C@@H](CCCNC(=N)N)C(=O)N[C@@H](CC(C)C)C(=O)NCC(=O)N[C@@H](CC(N)=O)C(=O)NCC(=O)N[C@H](C(=O)N[C@@H](CC(C)C)C(=O)N[C@@H](Cc1ccc(O)cc1)C(N)=O)C(C)C [Peptide 9, Pal-HRKRNNSRLGNGVLY-NH2] (Palmitoyl-HRKRNNSRLGNGVLY-NH2) | – | – | GI50 [1, 5]: 1.65 ± 0.1 µM; TGI [1, 5]: >5 µM; growth inhibition / potency in MCF-7 cells (in words) [1]: did not improve the degree of folding or the potency; cell-growth inhibitory properties [2]: significant cell-growth inhibitory properties
CCCCCCCCCCCCCCCC(=O)NCCCC[C@@H](NC(=O)[C@@H](CCCNC(=N)N)NC(=O)[C@@H](CC(N)=O)NC(=O)[C@@H](CC(N)=O)NC(=O)[C@@H](CO)NC(=O)[C@@H](CCCNC(=N)N)NC(=O)[C@@H](CC(C)C)NC(=O)CNC(=O)[C@@H](CC(N)=O)NC(=O)CNC(=O)[C@H](NC(=O)[C@@H](CC(C)C)NC(=O)[C@@H](Cc1ccc(O)cc1)NC(C)=O)C(C)C)C(N)=O [Peptide 18, Ac-YLVGNGLRSNNRK-(ε-Pal)] (Ac-[dY][dL][dV]G[dN]G[dL][dR][dS][dN][dN][dR][dK](Palmitoyl)-NH2; C-terminus assumed) | – | – | TGI [1, 5]: 0.4 ± 0.02 µM; growth inhibition / potency in MCF-7 cells (in words) [1]: increased the potency; AKT enzyme activity [3]: decreased to undetectable levels
Palmitoyl-HRKRNNSRLGNGVLYASVNPEYFSAA-NH2 (SMILES CCCCCCCCCCCCCCCC(=O)N[C@@H](Cc1c[nH]cn1)C(=O)N[C@@H](CCCNC(=N)N)C(=O)N[C@@H](CCCCN)C(=O)N[C@@H](CCCNC(=N)N)C(=O)N[C@@H](CC(N)=O)C(=O)N[C@@H](CC(N)=O)C(=O)N[C@@H](CO)C(=O)N[C@@H](CCCNC(=N)N)C(=O)N[C@@H](CC(C)C)C(=O)NCC(=O)N[C@@H](CC(N)=O)C(=O)NCC(=O)N[C@H](C(=O)N[C@@H](CC(C)C)C(=O)N[C@@H](Cc1ccc(O)cc1)C(=O)N[C@@H](C)C(=O)N[C@@H](CO)C(=O)N[C@H](C(=O)N[C@@H](CC(N)=O)C(=O)N1CCC[C@H]1C(=O)N[C@@H](CCC(=O)O)C(=O)N[C@@H](Cc1ccc(O)cc1)C(=O)N[C@@H](Cc1ccccc1)C(=O)N[C@@H](CO)C(=O)N[C@@H](C)C(=O)N[C@@H](C)C(N)=O)C(C)C)C(C)C) [peptide 4 (Pal-HRKRNNSRLGNGVLYASVNPEYFSAA-NH2)] | 1 | > 5 | –
Palmitoyl-HRKRNNSRLGNGVLYASVN-NH2 (SMILES CCCCCCCCCCCCCCCC(=O)N[C@@H](Cc1c[nH]cn1)C(=O)N[C@@H](CCCNC(=N)N)C(=O)N[C@@H](CCCCN)C(=O)N[C@@H](CCCNC(=N)N)C(=O)N[C@@H](CC(N)=O)C(=O)N[C@@H](CC(N)=O)C(=O)N[C@@H](CO)C(=O)N[C@@H](CCCNC(=N)N)C(=O)N[C@@H](CC(C)C)C(=O)NCC(=O)N[C@@H](CC(N)=O)C(=O)NCC(=O)N[C@H](C(=O)N[C@@H](CC(C)C)C(=O)N[C@@H](Cc1ccc(O)cc1)C(=O)N[C@@H](C)C(=O)N[C@@H](CO)C(=O)N[C@H](C(=O)N[C@@H](CC(N)=O)C(N)=O)C(C)C)C(C)C) [peptide 3 (Pal-HRKRNNSRLGNGVLYASVN-NH2)] | 1 | 1.55 | –
Palmitoyl-RNNSRLGNGVLYA-NH2 (not fully specified; printed as Pal-RNNSRLGNGVLYA-NH2) [peptide 33 (Pal-RNNSRLGNGVLYA-NH2)] | 0.1 | > 5 | –
Palmitoyl-RNNSRLGNGVLYASV-NH2 (not fully specified; printed as Pal-RNNSRLGNGVLYASV-NH2) [peptide 35 (Pal-RNNSRLGNGVLYASV-NH2)] | 0.05 | 2.5 | –
Palmitoyl-RNNSRLGNGVLYAS-NH2 (not fully specified; printed as Pal-RNNSRLGNGVLYAS-NH2) [peptide 34 (Pal-RNNSRLGNGVLYAS-NH2)] | 0.04 | > 5 | –
Palmitoyl-RNNSRLGNGVL-NH2 (SMILES CCCCCCCCCCCCCCCC(=O)N[C@@H](CCCNC(=N)N)C(=O)N[C@@H](CC(N)=O)C(=O)N[C@@H](CC(N)=O)C(=O)N[C@@H](CO)C(=O)N[C@@H](CCCNC(=N)N)C(=O)N[C@@H](CC(C)C)C(=O)NCC(=O)N[C@@H](CC(N)=O)C(=O)NCC(=O)N[C@H](C(=O)N[C@@H](CC(C)C)C(N)=O)C(C)C) [peptide 30 (Pal-RNNSRLGNGVL-NH2)] | 1.7 | 3.7 | –
Palmitoyl-[dV][dS][dA][dY][dL][dV]G[dN]G[dL][dR][dS][dN][dN][dR]-NH2 (SMILES CCCCCCCCCCCCCCCC(=O)N[C@@H](C(=O)N[C@H](CO)C(=O)N[C@H](C)C(=O)N[C@H](Cc1ccc(O)cc1)C(=O)N[C@H](CC(C)C)C(=O)N[C@@H](C(=O)NCC(=O)N[C@H](CC(N)=O)C(=O)NCC(=O)N[C@H](CC(C)C)C(=O)N[C@H](CCCNC(=N)N)C(=O)N[C@H](CO)C(=O)N[C@H](CC(N)=O)C(=O)N[C@H](CC(N)=O)C(=O)N[C@H](CCCNC(=N)N)C(N)=O)C(C)C)C(C)C) [peptide 21 (Pal-VSAYLVGNGLRSNNR-NH2)] | 0.04 | 0.1 | –
Palmitoyl-RNNSRLGNGVLF-NH2 (SMILES CCCCCCCCCCCCCCCC(=O)N[C@@H](CCCNC(=N)N)C(=O)N[C@@H](CC(N)=O)C(=O)N[C@@H](CC(N)=O)C(=O)N[C@@H](CO)C(=O)N[C@@H](CCCNC(=N)N)C(=O)N[C@@H](CC(C)C)C(=O)NCC(=O)N[C@@H](CC(N)=O)C(=O)NCC(=O)N[C@H](C(=O)N[C@@H](CC(C)C)C(=O)N[C@@H](Cc1ccccc1)C(N)=O)C(C)C) [peptide 29 (Pal-RNNSRLGNGVLF-NH2)] | 0.1 | 1.2 | –
